According to article PMC10040528, “A [4Fe-4S] cluster resides at the active center of phosphomevalonate dehydratase, a key enzyme in the archaeal modified mevalonate pathway” (Frontiers in Microbiology, 2023):

T1: Aeropyrum pernix phosphomevalonate dehydratase (ApPMDh) large subunit Ape_2087.1, polyhistidine-tagged (Aeropyrum pernix, UniProt Q9YA51 1-402)
T1 construct: large subunit Ape_2087.1 of phosphomevalonate dehydratase (type IIb aconitase X), Aeropyrum pernix; also called (His)6-Ape2087.1; large subunit of ApPMDh; source: E. coli Rosetta2 (DE3), pET-HisApPMDh, co-expressed with Ape_2089; heat-treated cell extract, Histrap FF; not shown: polyhistidine ((His)6), N-terminal, kept
T1 sequence (looked up): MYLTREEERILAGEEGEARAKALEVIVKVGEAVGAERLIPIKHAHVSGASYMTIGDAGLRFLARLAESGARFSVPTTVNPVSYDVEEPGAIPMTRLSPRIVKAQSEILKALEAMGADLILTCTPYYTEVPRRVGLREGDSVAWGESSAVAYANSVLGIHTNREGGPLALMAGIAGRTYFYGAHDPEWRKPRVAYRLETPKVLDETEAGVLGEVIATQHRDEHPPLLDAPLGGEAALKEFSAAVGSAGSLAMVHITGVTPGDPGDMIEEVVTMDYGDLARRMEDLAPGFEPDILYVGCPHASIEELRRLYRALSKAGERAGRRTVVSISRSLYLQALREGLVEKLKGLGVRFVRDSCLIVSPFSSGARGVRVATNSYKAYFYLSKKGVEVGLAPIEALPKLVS


Legend:
[1] = substrate: C/C(=C\C(=O)O)CCOP(=O)(O)O; test: coupled colorimetric assay (MVA5P kinase/pyruvate kinase/pyruvate oxidase/peroxidase, resorufin), Michaelis-Menten fit; assay type: biochemical, Aeropyrum pernix; conditions: reverse reaction (hydration of tAHMP to MVA5P), 70 mM Tris-HCl pH 7.0, 70 °C, anaerobic, reconstructed His-tagged enzyme
Text: coupled colorimetric assay (MVA5P kinase/pyruvate kinase/pyruvate oxidase/peroxidase, resorufin), Michaelis-Menten fit on […]

[2] = molecular target: T1, Aeropyrum pernix phosphomevalonate …; test: pull-down; as a1, but from a mixture of about equal amounts of cells co-expressing both subunits and cells expressing only untagged Ape_2089 (excess small subunit supplied); subunit ratio from SDS-PAGE and ImageJ; conditions: partners not purified
[3] = molecular target: T1, Aeropyrum pernix phosphomevalonate …; test: pull-down; polyhistidine-tagged large subunit co-expressed with untagged small subunit in E. coli; heat-treated (60°C, 30 min) cell extract on Histrap FF, anaerobic; 20 mM sodium phosphate pH 7.4, 500 mM NaCl, 20 mM imidazole; eluted with 150 mM imidazole; subunit ratio from 15% SDS-PAGE and ImageJ; conditions: partners not purified

| stoichiometry N [2] | stoichiometry N [3] | Binder | Km [1] [µM] | kcat [1] [s⁻¹] |
| --- | --- | --- | --- | --- |
| – | – | ApPMDh (Aeropyrum pernix phosphomevalonate dehydratase) (Aeropyrum pernix K1) (protein, N-terminal His6 tag with HRV3C site on large subunit, small subunit untagged; co-expressed in E. coli Rosetta2(DE3); 1:1 heteromeric complex; tag kept for kinetics, cut for EPR and iron assay; Fe-S cluster reconstituted anaerobically) chain 1: MYLTREEERILAGEEGEARAKALEVIVKVGEAVGAERLIPIKHAHVSGASYMTIGDAGLRFLARLAESGARFSVPTTVNPVSYDVEEPGAIPMTRLSPRIVKAQSEILKALEAMGADLILTCTPYYTEVPRRVGLREGDSVAWGESSAVAYANSVLGIHTNREGGPLALMAGIAGRTYFYGAHDPEWRKPRVAYRLETPKVLDETEAGVLGEVIATQHRDEHPPLLDAPLGGEAALKEFSAAVGSAGSLAMVHITGVTPGDPGDMIEEVVTMDYGDLARRMEDLAPGFEPDILYVGCPHASIEELRRLYRALSKAGERAGRRTVVSISRSLYLQALREGLVEKLKGLGVRFVRDSCLIVSPFSSGARGVRVATNSYKAYFYLSKKGVEVGLAPIEALPKLVS chain 2: MEVLRYRSRPIVGGEAEGPAVVIDSLSFYGEVDPETGVTSGGKPLAGRVAAIRRSRGSTVGSYVIYALKENGVAPLAILMERAEPIVIAGCVLAGIPLYDGLPPEFFERVRDGYRVRVHSDGLVEVLGPGQP | 18.3 | 15.2 |
| ~1 small subunit per large subunit | 1 small subunit per large subunit | Aeropyrum pernix phosphomevalonate dehydratase (ApPMDh) small subunit Ape_2089, untagged (natural protein, UniProt Q9YA49 1-132, looked up, small subunit Ape_2089 of phosphomevalonate dehydratase (type IIb aconitase X), Aeropyrum pernix; also called tag-free Ape_2089; small subunit of ApPMDh; source: E. coli Rosetta2 (DE3), co-expressed from pET-HisApPMDh (and expressed alone from pET-ApPMDh-S); heat-treated cell extract) MEVLRYRSRPIVGGEAEGPAVVIDSLSFYGEVDPETGVTSGGKPLAGRVAAIRRSRGSTVGSYVIYALKENGVAPLAILMERAEPIVIAGCVLAGIPLYDGLPPEFFERVRDGYRVRVHSDGLVEVLGPGQP | – | – |
